Measured values as given in article PMC10374538, “Ion selectivity and rotor coupling of the Vibrio flagellar sodium-driven stator unit” (Nature Communications, 2023).

Legend:
[1] = target: the molecule itself; test: cryo-EM structure; full length, non-cleaved VaPomAB reconstituted into saposin nanodiscs with E. coli polar lipids; 6.3 Å map
[2] = target: the molecule itself; test: cryo-EM structure; VaPomAB (PomB PGB removed) co-expressed and co-purified, in LMNG detergent, 20 mM HEPES pH 7.5, 300 mM NaCl, 0.0125% CHAPSO added; ~2.5 Å

Row | Protein | binding result [1] | stoichiometry N [2]
1 | Vibrio alginolyticus PomB, full length, non-cleaved (without protease insertion) (natural protein, That the tag is on PomB is surmised; Only a 6.3 Å map (EMD-16214) was deposited, no model; also called full length VaPomAB) MDDEDNKCDCPPPGLPLWMGTFADLMSLLMCFFVLLLSFSEMDVLKFKQIAGSMKFAFGVQNQLEVKDIPKGTSIIAQEFRPGRPEPTPIDVIMQQTMDITQQTLEFHEGESDRAGGTKRDEGKLTGGQSPATSTQNNESAEADMQQQQSKEMSQEMETLMESIKKALEREIEQGAIEVENLGQQIVIRMREKGAFPEGSAFLQPKFRPLVRQIAELVKDVPGIVRVSGHTDNRPLDSELYRSNWDLSSQRAVSVAQEMEKVRGFSHQRLRVRGMADTEPLLPNDSDDNRALNRRVEISIMQGEPLYSEEVPVIQ | binds | –
2 | Vibrio alginolyticus PomB without the peptidoglycan binding domain (PGB removed by HRV 3C protease at a site inserted between Gln95 and Gln96) (domain or fragment, PomB of Vibrio alginolyticus (ATCC 17749), from the N-terminus to Gln95 (TM helix, plug motif and what follows, up to the inserted protease site); That the twin-Strep-tag sat at the C-terminus of PomB and left with the PGB domain is surmised; also called VaPomB; VaPomAB without PomB PGB; not shown: twin-Strep-tag, C-terminal, cleaved) MDDEDNKCDCPPPGLPLWMGTFADLMSLLMCFFVLLLSFSEMDVLKFKQIAGSMKFAFGVQNQLEVKDIPKGTSIIAQEFRPGRPEPTPIDVIMQGTLEVLFQ | – | 2
